Experimental data as given in article PMC12152530, “Efficient One‐Step Production of 7S,17S‐ and 10S,17S‐Dihydroxydocosahexaenoic Acids by a Double‐Oxygenating 15S‐Lipoxygenase From Chlamydomonas incerta” (Biotechnology and Bioengineering, 2025).

Key:
[1] = target: T1, V. carteri f. nagariensis LOX (D8U0N8) (Volvox carteri, UniProt D8U0N8); assay: product analysis after reaction with ARA; assay type: cell-based; settings: enzyme preparation not stated; products HETE and DiHETE
T1 construct: gene VOLCADRAFT_105417; synthesized gene in pET-28a(+), expressed in E. coli ER2566
T1 sequence (D8U0N8 1-1056): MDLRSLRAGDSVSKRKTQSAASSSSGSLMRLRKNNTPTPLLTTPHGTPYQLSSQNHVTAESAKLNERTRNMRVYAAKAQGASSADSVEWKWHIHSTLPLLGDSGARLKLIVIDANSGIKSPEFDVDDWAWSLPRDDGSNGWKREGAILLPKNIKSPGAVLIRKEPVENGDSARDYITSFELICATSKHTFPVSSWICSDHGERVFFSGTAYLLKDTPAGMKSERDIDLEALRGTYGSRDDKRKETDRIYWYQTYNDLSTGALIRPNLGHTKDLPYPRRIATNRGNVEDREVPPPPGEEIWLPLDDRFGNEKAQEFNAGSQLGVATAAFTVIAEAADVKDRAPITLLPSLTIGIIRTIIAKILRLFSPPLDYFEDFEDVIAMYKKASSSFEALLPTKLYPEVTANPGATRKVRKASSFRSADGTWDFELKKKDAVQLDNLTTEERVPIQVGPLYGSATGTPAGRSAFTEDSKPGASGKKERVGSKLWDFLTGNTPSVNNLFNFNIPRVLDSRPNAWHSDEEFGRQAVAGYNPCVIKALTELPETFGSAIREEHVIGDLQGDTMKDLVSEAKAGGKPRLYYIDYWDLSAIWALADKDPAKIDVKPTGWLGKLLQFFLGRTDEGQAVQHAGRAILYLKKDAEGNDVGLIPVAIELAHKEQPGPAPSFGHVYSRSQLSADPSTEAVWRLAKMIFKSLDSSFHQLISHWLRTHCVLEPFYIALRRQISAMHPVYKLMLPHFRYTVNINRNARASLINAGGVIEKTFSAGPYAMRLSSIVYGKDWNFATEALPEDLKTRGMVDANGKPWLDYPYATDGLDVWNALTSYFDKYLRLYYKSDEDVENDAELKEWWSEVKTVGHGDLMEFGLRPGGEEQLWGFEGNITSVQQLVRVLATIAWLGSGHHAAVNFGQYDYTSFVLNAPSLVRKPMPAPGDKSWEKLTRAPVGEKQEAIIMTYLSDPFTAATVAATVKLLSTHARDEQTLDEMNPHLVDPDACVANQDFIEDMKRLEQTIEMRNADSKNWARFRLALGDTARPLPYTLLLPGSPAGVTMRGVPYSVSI

purified protein [2] = substrate: CC/C=C\C/C=C\C/C=C\C/C=C\C/C=C\C/C=C\CCC(=O)O; assay: purified protein; assay type: biochemical, Chlamydomonas incerta; settings: 50 mM HEPPS pH 7.5, 35°C, 5 min, substrate 0.05-0.2 mM, product 17S-HDHA (first oxygenation)
purified protein [3] = substrate: CCCCC/C=C\C/C=C\C/C=C\C/C=C\CCCC(=O)O; assay: purified protein; assay type: biochemical, Chlamydomonas incerta; settings: 50 mM HEPPS pH 7.5, 35°C, 5 min, substrate 0.05-0.2 mM, product 15S-HETE (first oxygenation)
purified protein [4] = substrate: CC/C=C\C/C=C\C/C=C\C/C=C\C/C=C\CCCC(=O)O; assay: purified protein; assay type: biochemical, Chlamydomonas incerta; settings: 50 mM HEPPS pH 7.5, 35°C, 5 min, substrate 0.05-0.2 mM, product 15S-HEPA (first oxygenation)

## CCCCC/C=C\C/C=C\C/C=C\C/C=C\CCCC(=O)O [ARA]
[1]
  product analysis after reaction with ARA: only those from V. carteri f. nagariensis (D8U0N8)

B1: C. incerta 15S-LOX (Chlamydomonas incerta) (protein)
chain: MNGAHSPGEVAVWKASIESSAPLLGDTGTRLEIVVIDLDTDRRSEPTNVDSWRPPVLESGPGSSTARSGASSGSGTSGWKREGRLPLPADFLTPGAVLVRKSRTVDGNASVDFIGTIKLVSATKVFHFPVHSWVSSDHDWRVFFEGTAYLPAHTPPSLRDERQRELQELQGTPATRTLERRPADRIYWYQTYDDLSSAGEGGYRPALGATARRPYPRRIATNRGAADGHPDREKPPVKAGDKPWLPYDEQFSFDKAADFNGDTLTAALPAAFSFIAEAGDQRHLTWLNLLPTAVHGLVRNVLRAVLGYAEPPAANFDSFEDVLAFFGEDAASRGSSMAPTQLYPAGQEAAMKGFGAPHDPRNPAPFKTASGAWDFRLNSAAAAAINDQIAADRVGPVPDSATGGPSSGAATAATAFAATAAAATAAGAPAAAITAPPQPGVPNLIGLLGSAVWRRLTNDPSHDINDLLYFPVPRVVDGRPDAWYTDEEYGRQALAGYHPTAITALTQLPEAFGSAIRAHHVEAELQGSSLEALVAAAAGGAKPRLYLIDHWDLSAYWQEAEEEAEAARKAGRKPPSAVQHAGRCLFYLRKDEVTGEDTALVPIAIELAHPGTHKASNGTSAPLPPTAGEVYARSELVASPQTLAVWRLAKAVFRSLDTSIHQLVAHFNRTHAALEPFLIAMRRQMSVMHPITKLMLPHFRYTLNINRNARASLINAGGIIEKTFSAGPFAMRLASAVYGKSWTFAGQALPEDLRERGMLDAAGRPWLDYPFAIDGLDTWAALTAYFDQYVSLYYDGDGAVLEDGELQAWWDEVKTEGHPDIVAFGLKSEQQVWGFTGPIAKRSDLVHVLATIAWLASGHHAAVNFGQYDFTGLILNASSLVRRPMPAPKEPAYKELTGAALGPPQERVFMTYLADPFSAVQVLATVKLLSAHARDEHTLDEANDYIVDPAAREANRAFIAAVKQLESAIETRNADPANWARYGLAAGTAAPLPYTLLMASSPPGVTMRGVPYSVSI
notes: synthesized gene in pET-28a(+), E. coli ER2566, His-Trap purified, His6 tag kept; 1016 residues plus six His, 109,248 (kDa [sic]), dimer 219 kDa
Purified protein [2]
  Km: 98.5 ± 0.1 µM
  kcat: 121 ± 0.2 s⁻¹
  kcat/Km: 980000 ± 100000 M⁻¹ s⁻¹
Purified protein [3]
  Km: 101 ± 0.02 µM
  kcat: 149 ± 0.2 s⁻¹
  kcat/Km: 1.47e+06 ± 100000 M⁻¹ s⁻¹
Purified protein [4]
  Km: 191 ± 0.1 µM
  kcat: 143 ± 0.2 s⁻¹
  kcat/Km: 750000 ± 100000 M⁻¹ s⁻¹
